Data from US20210214459A1 (Novartis, published 2021).

B1: 374.B (antibody, human IgG4 S228P, kappa, V domains shown)
VH: EVQLLESGGGLVQPGGSLRLSCAASGFTFSYNAMSWVRQAPGKGLEWVSSISGTGGSTYYADSVKGRFTISRDNSKNTLYLQMNSLRAEDTAVYYCARGGLYGSGSYLSDFDLWGRGTLVTVSS
VL: EIVLTQSPATLSVSPGERATLSCRASQSVGSNLAWYQQKPGQAPRLLIYGASTRATGIPARFSGSGSGTEFTLTISSLQSEDFAVYYCQQHNAFPYTFGGGTKVEIKR
notes: IgG4 S228P/L235E format; Heavy chain entry ends in X, wherein X is K or absent; Biotinylated in the whole blood assay
B2: 377.B (antibody, IgG4, V domains shown)
VH: EVQLLESGGGLVQPGGSLRLSCAASGFTFKSYAMSWVRQAPGKGLEWVSAISGSGSYTYYADSVKGRFTISRDNSKNTLYLQMNSLRAEDTAVYYCARGGLYGSGSYLSDFDLWGRGTLVTVSS
VL: EIVLTQSPATLSVSPGERATLSCRASQSVGSNLAWYQQKPGQAPRLLIYGASTRATGIPARFSGSGSGTEFTLTISSLQSEDFAVYYCQQHNAFPYTFGGGTKVEIK
notes: IgG4 S228P/L235E format (.B construct); Biotinylated in the whole blood assay
B3: 379.B (antibody, human IgG4 S228P, kappa, V domains shown)
VH: EVQLLESGGGLVQPGGSLRLSCAASGFTFSRYAMSWVRQAPGKGLEWVSSISGTGGSTYYADSVKGRFTISRDNSKNTLYLQMNSLRAEDTAVYYCARGGLYGSGSYLSDFDLWGRGTLVTVSS
VL: EIVLTQSPATLSVSPGERATLSCRASQSVGSNLAWYQQKPGQAPRLLIYGASTRATGIPARFSGSGSGTEFTLTISSLQSEDFAVYYCQQHNAFPYTFGGGTKVEIKR
notes: as for B1
B4: 356.B (antibody, human IgG4 S228P, kappa, V domains shown)
VH: QVQLQESGPGLVKPSETLSLTCTVSGGSIEGRYWSWIRQPPGKGLEWIGYIYGSGSTKYNPSLKSRVTISVDTSKNQFSLKLSSVTAADTAVYYCARESQESPYNNWFDPWGQGTLVTVSS
VL: DIQMTQSPSSVSASVGDRVTITCRASQGISSWLAWYQQKPGKAPKLLIYAASSLQSGVPSRFSGSGSGTDFTLTISSLQPEDFATYYCQQGNSFPRTFGGGTKVEIKR
notes: as for B1
B5: 350.B (antibody, human IgG4 S228P, kappa)
heavy: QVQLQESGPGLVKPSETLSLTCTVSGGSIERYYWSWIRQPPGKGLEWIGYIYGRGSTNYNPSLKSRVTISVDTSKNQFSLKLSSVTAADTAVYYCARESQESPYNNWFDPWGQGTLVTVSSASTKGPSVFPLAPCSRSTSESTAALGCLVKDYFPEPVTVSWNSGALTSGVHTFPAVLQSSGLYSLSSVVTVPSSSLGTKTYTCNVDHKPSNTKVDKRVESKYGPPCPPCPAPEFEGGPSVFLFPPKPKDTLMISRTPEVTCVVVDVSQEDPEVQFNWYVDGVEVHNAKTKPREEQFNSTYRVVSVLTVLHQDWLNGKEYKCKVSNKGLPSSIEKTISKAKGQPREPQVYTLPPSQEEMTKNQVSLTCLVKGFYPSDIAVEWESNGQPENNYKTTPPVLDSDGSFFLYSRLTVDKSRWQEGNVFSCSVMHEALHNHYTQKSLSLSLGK
light: DIQMTQSPSSVSASVGDRVTITCRASQGISSWLAWYQQKPGKAPKLLIYAASSLQSGVPSRFSGSGSGTDFTLTISSLQPEDFATYYCQQGNSFPRTFGGGTKVEIKRTVAAPSVFIFPPSDEQLKSGTASVVCLLNNFYPREAKVQWKVDNALQSGNSQESVTEQDSKDSTYSLSSTLTLSKADYEKHKVYACEVTHQGLSSPVTKSFNRGEC
notes: as for B1
B6: 358.B (antibody, human IgG4 S228P, kappa, V domains shown)
VH: QVQLQESGPGLVKPSETLSLTCTVSGGSISGRYWSWIRQPPGKGLEWIGYIYGTGSTNYNPSLKSRVTISVDTSKNQFSLKLSSVTAADTAVYYCARESQESPYNNWFDPWGQGTLVTVSS
VL: DIQMTQSPSSVSASVGDRVTITCRASQGISSWLAWYQQKPGKAPKLLIYAASSLQSGVPSRFSGSGSGTDFTLTISSLQPEDFATYYCQQGNSFPRTFGGGTKVEIKR
notes: as for B1

Each binder was assayed against T1, human CD73 expressed on the cell surface (human, UniProt P21589 27-549) (assay: flow cytometry, biotinylated antibody on CD8+ T cells in human whole blood, streptavidin-APC detection).
T1 construct: whole, on cells; also called surface CD73
T1 sequence (looked up): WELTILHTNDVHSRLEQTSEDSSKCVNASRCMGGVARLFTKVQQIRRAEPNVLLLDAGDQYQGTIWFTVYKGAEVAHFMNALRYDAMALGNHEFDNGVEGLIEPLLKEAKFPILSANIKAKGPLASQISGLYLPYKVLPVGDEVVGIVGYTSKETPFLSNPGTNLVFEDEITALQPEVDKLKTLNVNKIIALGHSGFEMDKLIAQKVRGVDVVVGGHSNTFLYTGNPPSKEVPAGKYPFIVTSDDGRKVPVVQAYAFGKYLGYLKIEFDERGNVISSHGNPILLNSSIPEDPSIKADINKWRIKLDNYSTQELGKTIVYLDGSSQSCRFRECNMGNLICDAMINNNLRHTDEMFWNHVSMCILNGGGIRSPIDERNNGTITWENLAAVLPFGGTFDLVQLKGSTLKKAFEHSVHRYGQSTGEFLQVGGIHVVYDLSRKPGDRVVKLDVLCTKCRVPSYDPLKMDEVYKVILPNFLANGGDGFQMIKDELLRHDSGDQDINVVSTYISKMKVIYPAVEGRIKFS
Protocol: Whole blood target engagement was assessed by flow cytometry using whole blood from healthy human donors. Briefly, biotinylated antibodies were incubated with whole blood for 30 minutes prior to red blood cell lysis and fixation. Fixed cells were stained for CD3 and CD8 to identify CD8+ T cells, and streptavidin-APC to detect biotin. After staining, the cell were washed and subjected to flow cytometry analysis.

Binder	EC50 (read off the curve) [ng/mL]
B1	~6
B2	~5
B3	~6
B4	~5
B5	~5
B6	~4
